Assay results from article PMC11154593, “New insights into the domain of unknown function (DUF) of EccC5, the pivotal ATPase providing the secretion driving force to the ESX-5 secretion system” (Acta Crystallographica. Section D, Structural Biology, 2024).
Values joined by “and” are separate entries in the source; they are usually repeats but may differ in a detail not shown here. Equal entries are not always repeated.

Target: the molecule itself
Assay: SEC; […] (16/60) […]; 20 mM Tris-HCl pH 7.5, 150 mM NaCl ([…]) or 20 mM HEPES pH 7.5, 150 mM NaCl, 5 mM MgCl2 ([…]; 4°C

B1: DUF domain of EccC5 from M. tuberculosis (crystallographic construct, residues 1-417 with 17-118 rep (domain or fragment)
chain: MKRGFARPTPEKPPVIGSSGQESADSMDANYRWFHPAPNTLAAAVGSPRMWERKPDGKDLNFGVVRVGGSGFGRYQSVVYNLPKMVSLLVEPWYALVGEREQVLGLMRAIICQLAFSHGPDHVQMIVVSSDLDQWDWVKWLPHFGDSRRHDAAGNARMVYTSVREFAAEQAELFAGRGSFTPRHASSSAQTPTPHTVIIADVDDPQWEYVISAEGVDGVTFFDLTGSSMWTDIPERKLQFDKTGVIEALPRDRDTWMVIDDKAWFFALTDQVSIAEAEEFAQKLAQWRLA
notes: EccC5, M. tuberculosis, UniProt P9WNA5, residues 1-16 (before the removed transmembrane region); linker replacing residues 17-118; EccC5, M. tuberculosis, UniProt P9WNA5, residues 119-166; linker replacing residues 167-198; EccC5, M. tuberculosis, UniProt P9WNA5, residues 199-417; also called MtbEccC5 DUF; EccC5 DUF; not shown: His6, N-terminal, cleaved; SUMO, N-terminal, cleaved
  stoichiometry N: 3 and 6
